Data on one substance can be found in paper PMC7865483.

The target in this test is EE-tagged Pank1β (pantothenate kinase 1β), stably overexpressed in HEK293 cells (UniProt Q8TE04). Nature of the test: proximity ligation; in situ PLA (Duolink) on fixed HEK293/Pank1β cells with anti-Pank1 and anti-CoAsy, anti-PPCS or anti-PPCDC antibodies; exponentially growing cells in full medium; for Pank1/CoAsy also after 16 h serum starvation, serum starvation + 500 μM H2O2 for 10 min, and serum starvation + 1 μM insulin for 3 h or 6 h.
EE-tagged Pank1β (pantothenate kinase 1β), stably overexpressed in HEK293 cells, sequence (Q8TE04 other isoform, or with tags, fused parts or gaps): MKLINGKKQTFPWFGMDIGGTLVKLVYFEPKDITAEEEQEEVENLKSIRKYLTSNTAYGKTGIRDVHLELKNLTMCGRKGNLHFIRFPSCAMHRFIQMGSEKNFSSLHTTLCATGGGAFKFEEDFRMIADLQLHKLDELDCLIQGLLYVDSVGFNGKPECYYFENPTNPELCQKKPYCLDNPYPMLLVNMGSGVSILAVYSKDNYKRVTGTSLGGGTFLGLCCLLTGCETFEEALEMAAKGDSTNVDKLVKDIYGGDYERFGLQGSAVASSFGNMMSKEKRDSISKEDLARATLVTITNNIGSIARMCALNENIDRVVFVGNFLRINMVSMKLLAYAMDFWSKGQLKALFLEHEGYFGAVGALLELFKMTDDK

In the case of “CoA synthase (CoAsy) (from UniProt Q13057 1-564) (enzyme)”, the fold increase of the PLA signal after serum starvation or serum starvation + H2O2, against control cells is 2 fold.
